Tests used:
NOD mice = assay: a-Ab treatment in NOD model of T1D; assay type: in vivo, mouse
Experimental: WT female NOD mice matched for age, weight, blood glucose, plasma insulin, and circulating FABP4 levels were utilized to explore the effect of antibody-mediated FABP4 targeting in the context of T1D, (FIGS. 2D-G). Mice were treated twice weekly with a-Ab, PBS, or a control antibody of the same isotype (c-Ab) starting at 10 weeks of age, when insulitis had already been established. […] Collectively, a-Ab-mediated protection against T1D and improvement of glycemic control in a DIO model of T2D are both associated with improved beta cell mass and function.
To investigate the contribution of proliferation to the increase in beta cell mass, NOD mice were treated with BrdU along with a-Ab, c-Ab, or PBS for 5 weeks beginning at 10 weeks of age. […] This difference is likely associated with the pro-proliferative environment of DIO as compared to the NOD model. […] Thus, targeting the FABP4-ADK-NDPK complex with a-Ab preserves beta cell mass and enhances beta cell function to protect against diabetes.
Pancreata were dissected and fixed in 10% zinc buffered formalin for 24-48 hrs before being washed and stored in 70% ethanol. Samples were paraffin embedded, and sectioned in steps 250 μm apart. Immunostaining for insulin, glucagon, BrdU and Cleaved Caspase 3 was performed as described previously (Prentice et al., 2014; Rezania et al., 2014). Images of each section were acquired using Aperio Imagescope at 20× magnification. The beta- or alpha-cell area was calculated by using positive pixel count analysis (Aperio ImageScope). Islet number and size was determined by manually circling insulin positive clusters in the Aperio ImageScope software. Two blinded individuals independently performed manual analysis and insulitis scoring.

INS1 cells = assay: ER stress and cell death markers (Western blot, QPCR); assay type: cell-based, rat; conditions: combined stimulation with complex and ER stress-inducer Tg
From the text: The purinergic P2Y receptors activate two downstream signaling pathways; phospholipase C (PLC), which promotes the generation of IP3, as well as inhibition of cAMP generation through the activation of G proteins (Sabala et al., 2001; Seo et al., 2016). These pathways directly influence calcium flux, which regulates both insulin secretion and survival. To elucidate how the NDPK-ADK/FABP4 complex influences beta cell function to promote diabetes, the intracellular effects mediated by this complex were examined using western blotting and quantitative PCR. Western blotting and quantitative PCR (QPCR) were performed as previously described (Prentice et al., 2018). […] Protein content was evaluated by BCA (Invitrogen, USA). […]
ER calcium homeostasis is essential for a variety of processes and reduced ER calcium can induce ER stress through the accumulation or inappropriate secretion of misprocessed or misfolded proteins (Engin et al., 2014; Engin et al., 2013). […] Cells were treated for 2 hours with increasing doses of Thapsigargin or 18 hours with increasing doses of cytokines (1=TNFα (Peprotech #315-05-20 ug) […], IFNγ (Peprotech #315-01A-20 ug) 100 ng/ml, IL-1β (R&D Systems #401-ML-005) 5 ng/ml), washed with PBS, and cleaved caspase 3/7 activity was determined using the Promega Caspase-Glo 3/7 Assay System, according to manufacturer's instructions.

[1] = among the mice that developed diabetes

B1: a-Ab: monoclonal antibody previously reported as CA33; heavy chain SEQ ID NO 446, light chain SEQ ID NO 447; binds FABP4 and NDPK (antibody, listed as Homo sapiens)
heavy: QSVEESGGRLVTPGTPLTLTCTVSGFSLSTYYMSWVRQAPGKGLEWIGIIYPSGSTYCASWAKGRFTISKASTTVDLKITSPTTEDTATYFCARPDNDGTSGYLSGFGLWGQGLVTVSSAKTTPPSVYPLAPGSAAQTNSMVTLGCLVKGYFPEPVTVTWNSGSLSSGVHTFPAVLQSDLYTLSSSVTVPSSTWPSETVTCNVAHPASSTKVDKKIVPRDC
light: DVVMTQTPASVSEPVGGTVTIKCGASEDISRYLVWYQQKPGQPPKRLIYKASTLASGVPSRFKGSGSGTDFTLTISDLECDDAATYYCQCTYGTYAGSFFYSFGGGTEVVVERTDAAPTVSIFPPSSEQLTSGGASVVCFLNNFYPKDINVKWKIDGSERQNGVLNSWTDQDSKDCTYSMSSTLTLTKDEYERHNSYTCEATHKTSTSPIVKSFNRNEC
overall number of BrdU positive beta cells (NOD mice; NOD mice, 5 weeks, compared to c-Ab): no significant difference
islet number and beta cell mass (NOD mice; NOD mice, compared to c-Ab-treated controls): significant increase
CC3 positive beta cells (NOD mice; NOD model, vs controls): profound reduction
blood glucose (NOD mice; [1]): significantly reduced
plasma insulin levels (NOD mice; [1]): higher
body weight, plasma insulin, or blood glucose levels (NOD mice; among the non-diabetic mice, throughout the study): no significant differences
development of T1D (NOD mice; female NOD mice, twice weekly from 10 weeks of age): significantly protected
GSIS both in vivo and ex vivo (NOD mice; non-diabetic NOD mice): improved
glycemic control during GTT (NOD mice; non-diabetic NOD mice): improved
glucagon positive area (NOD mice; pancreatic sections, NOD mice): significant reduction
ER stress markers Chop and Bip (Grp78) (INS1 cells): rescued
